Laboratory results from publication PMC7969121, “Structural and Kinetic Characterization of Hyperthermophilic NADH-Dependent Persulfide Reductase from Archaeoglobus fulgidus” (Archaea, 2021).

Tests used:
[1] = molecular target: T1, AfNpsr; A. fulgidus Npsr (Archaeoglobus fulgidus, UniProt O29847); assay: X-ray crystal structure, […] Å; format: binding; conditions: tightly bound catalytic CoA in active site near Cys 42
T1 construct: gene AF_0400; codon-optimized full-length gene in pET21b+, C-terminal His6-tag, E. coli BL21(DE3); FAD added; FAD domain 1-448, rhodanese domain 449-550

[2] = substrate: O=C(O)c1cc(SSc2ccc([N+](=O)[O-])c(C(=O)O)c2)ccc1[N+](=O)[O-]; assay: TNB formation at A412, Michaelis-Menten fit; format: biochemical, Archaeoglobus fulgidus; conditions: 100 μM NADH, aerobic, 50 mM sodium phosphate pH 7.5, 70°C, buffer background subtracted
Text: TNB formation at A412, Michaelis-Menten fit on AfNpsr; A. fulgidus Npsr

[3] = substrate: NC(=O)C1=CN([C@@H]2O[C@H](COP(=O)(O)OP(=O)(O)OC[C@H]3O[C@@H](n4cnc5c(N)ncnc54)[C@H](O)[C@@H]3O)[C@@H](O)[C@H]2O)C=CC1; assay: NADH oxidase, A340, Michaelis-Menten fit; format: biochemical, Archaeoglobus fulgidus; conditions: aerobic, O2 as acceptor, no di-, per- or polysulfide, 50 mM sodium phosphate pH 7.5, 70°C
Text: NADH oxidase, A340, Michaelis-Menten fit on AfNpsr; A. fulgidus Npsr

[4] = substrate: CC(C)(COP(=O)(O)OP(=O)(O)OC[C@H]1O[C@@H](n2cnc3c(N)ncnc32)[C@H](O)[C@@H]1OP(=O)(O)O)[C@@H](O)C(=O)NCCC(=O)NCCSS; assay: NADH oxidation at A340, Michaelis-Menten fit; format: biochemical, Archaeoglobus fulgidus; conditions: 100 μM NADH, aerobic, 50 mM sodium phosphate pH 7.5, 70°C, persulfide made in situ from disulfide + 2-fold sodium sulfide, oxidase background not subtracted
Text: (§1) NADH oxidation at A340, Michaelis-Menten fit on AfNpsr; A. fulgidus Npsr

[5] = substrate: N[C@@H](CSS)C(=O)O; assay: NADH oxidation at A340, Michaelis-Menten fit; format: biochemical, Archaeoglobus fulgidus; conditions: 100 μM NADH, aerobic, 50 mM sodium phosphate pH 7.5, 70°C, persulfide made in situ from disulfide + 2-fold sodium sulfide, oxidase background not subtracted
Text: as §1

Molecule	X-ray crystal structure, 3.1 Å [1]	Km [2] [µM]	kcat [2] [s⁻¹]	kcat/Km [2] [M⁻¹ s⁻¹]	Km [3] [µM]	kcat [3] [s⁻¹]	kcat/Km [3] [M⁻¹ s⁻¹]	Km [4] [µM]	kcat [4] [s⁻¹]	kcat/Km [4] [M⁻¹ s⁻¹]	Km [5] [µM]	kcat [5] [s⁻¹]	kcat/Km [5] [M⁻¹ s⁻¹]
CC(C)(COP(=O)(O)OP(=O)(O)OC[C@H]1O[C@@H](n2cnc3c(N)ncnc32)[C@H](O)[C@@H]1OP(=O)(O)O)[C@@H](O)C(=O)NCCC(=O)NCCS [CoA]	In AfNpsr, CoA is deeply buried												
AfNpsr; A. fulgidus Npsr (Archaeoglobus fulgidus DSM 4304) (protein, codon-optimized full-length gene in pET21b+, C-terminal His6-tag, E. coli BL21(DE3); FAD added; FAD domain 1-448, rhodanese domain 449-550) MNVVVIGGGAAGLKAASRIRRKDGDASITVVEAGKYVSLGRCGLPYYVGGLVHEVDNLRETTYGAVRDEAYFKKLKNIDVLTETVATEIDRSRKTVKIVRNGSEDELNYDYLVIATGARPAKPPIEGIEAEGVVTLTSAEEAEKIIEMWEEGAEKAVVIGAGFIGLESAEALKNLDMEVTVIEMMDRVAPAMLDREMAVLVENHLREKGVNVVTSTRVEKIVSQDDKVRAVIANGKEYPADVVVVATGIKPNSELAEKAGLKIGETGAIWVDEYMRTSDESIYAGGDCVETTCLVTGKKIIAPFGDVANKQGRVIGENITGGRAVFPGVIRTAIFKVFDFTAASAGVNEQMAKEAGLDYFTVIAPSPDRAHYYPQANYIRLKLIVEKGSWRVIGAQGVGMGEVAKRIDVLSTAIQAGMTIDQLANLDLAYAPPYSPALDPVITIANVAMNKRDGLFEGINVFELKEKLEKEDIVILDVRSEEEFKTRRIESEKVIHIPILELRERLDEIPRDKEIVVVCAIGLRSFEASRILKHAGFEKVKILEGGMAFWF		743 ± 196	2.44 ± 0.14	3280 ± 480	20.6 ± 5.1	7.15 ± 0.51	347000 ± 75000	547 ± 41	13.2 ± 0.3	24100 ± 1400	3410 ± 630	230 ± 23	67600 ± 11000
